Measurements published in the nanobody polyreactivity screen of Harvey et al. (2022).

Test: yeast display, Sf9 membrane polyspecificity reagent, FACS + sequencing; frameworks hold sequencing errors
How it was run: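 Sorting gates, low and high (top ~1%), were placed on anti-HA fluorescence to track expression and on streptavidin fluorescence to track reagent binding. A clone's polyreactivity label is taken from the gate it came out of. The reagent was 10% biotinylated, detergent-solubilized Sf9 membrane, applied for 1 hour at 4 °C to galactose-induced yeast display cells.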

Sequence | polyreactivity (PSR sort gate)
QVQLVESGGGLVQAGGSLRLSCAASGSTFVFYAMGWYRQAPGKERELVASISFRGGSTRYADSVKGRFTISRDNAKNTVYLQMNSLKPEDTAVYYCNARPFYRYYYWGQGTQVTVSS | high polyreactivity
QVQLVESGGGLVQAGGSLRLSCAASGSTFYYYGMGWYRQAPGKERELVAAINWSGGTTYYADSVKGRFTISRDNAKNTVYLQMNSLKPEDTAVYYCATEHNHLGYYYWGQGTQVTVSS | low polyreactivity
QVQLVESGGGLVQAGGSLRLSCADSARIFSFNTMGWYRQAPGKETELVAAISYRGRTYYADSVKGRFTISRDNAKKTVYLQMNSLKPEDTAVYYCIAVYGYWYGSWGQGTQVTVSS | high polyreactivity
QVQLVESRGRLVQAGGSLRLSCAASGITFYVYTMGWYRQAPGKERELVAAINGSGGSTNYADSVKGRFTISRDNAKNSVYLHMNSLKTEDTAVYYCAADWSLRLYDYWGQGTQVTVSS | low polyreactivity
QVQLVESGGGLVQAGGSLRLSCASSGRILYGSAMGWYRQAPGKERALVAAISWRSGSTYYADSVKGRFTISRDNAKNTVYLQMNSLKPEDTEVYYCAAGYGGYPGGYYWGQGTQVTVSS | high polyreactivity
QVQLVASGGGLVQAGGSLRLSSAASGYIFAPNAMGWYRQAPGKERELVAAITFSGGSTSYADSVKGRFTISRDNAKNTVYLQMNSLKPEDTAVYYCNRDDAGIMDYWGLGTQVTVSS | low polyreactivity
QVQLVESGGGLVQAGGSLRLSCAASGFISPQNTMGWYRQAPGKERELVAAITSGGSTYYADSVKGRFTISRDNAKNTVYLLMNSLKPEDTAVYYCASRPYGTWTYGYWGQGTQVTVSS | low polyreactivity
QVQLVESGGGSVQAGGSLRLSCAASGIIFWYYTMGWYRQATGKERELVAAISWSSGITYYADSLKGRFTISRDNAKNTVYLQMNSLKPEDTAVYYCSAGYYKGFTLVRVIFDYWGQGTQVTVSS | low polyreactivity
QVQLVESGGGLVQAGGSLRLSCAASGLIFGVNDMGWYRQAPGKERELVAAITSRGGSTYYADSVKGRFTISRDNAKNTVYLQMNSLKPEDTAVYYCAAKYAYYEPYSWRPQRTYNYWGQGTQVTVSS | high polyreactivity
QVQLVESGGGLVQAGGSLRLSCAASGITFGDNAMGWYRQAPGKERELVAAISSGGSTDYADSVKGRFTISRDNAKNTVYLQMNSLNPEDTAVYYCAVDWVSVPEYDYWGQGTQVTVSS | low polyreactivity
QVQLVESGGGLVHAGGSLRLSCAASGIIFRFYAMGWYRQAPAKERELVAAISSGGSTYYADSVKGRFTISRDNAKNTVYLQMIRLKPEDTAVYYCNARVRYKRTVRYGYWGQGTQVTVSS | high polyreactivity
QVQHVESGGGLVQAGGSLRLSCAASGSTSGKYAMGWYRQAPGKERELVAGITKGGGGTYYADSVKGRFTISRDNAKNTVYLQLNSLKPEVTAVYYCAKYYGSGYYIYDYWGQGTQVTVSS | low polyreactivity
QVQLVESGGGLVQAGGSLRLSCAASGRIFNGYAMGWYRQAPGKERELVAAINSSGGSTYYADSVKGRFTISRDNAKNTVYLQMNSLKPEDTAVYYCARVSYHYRTYDYWGQGTQVTVSS | high polyreactivity
QVQLVESGGGLVQAGGSLRLSCGASGRTFQFYAMGWYRQAPGKERELVAAISRSSGSTTYADSVKGRFTISRDNAKNTVYLQMNSLKPEDTAVYYCAARRKGKARVPQYDYWGQGTQVTVSS | high polyreactivity
QVQLVESRGGLVQAGGSLGLSCAASGRIFSGYAMGWYRKAPGKERELVAAISGSGGTTYYADSVKGRFTISRDNAKNTVYLQINSLKPEDTAVYYCAVVIGVGYGYYYWGQGTQVTVSS | low polyreactivity
QVQLVESGGGLVQAGGSLRLSCAASGSIFGTNAMGWYRQAPGKERELVAAISFSGGDTYYADSVKGRFTISRDNAKKTVYLQMNRLKPEDTAVYYCAAEVPDTDAYGYWGQGTQVTVSS | low polyreactivity
QVQLVESGGGLVQAGGSLRLSCASSGSNVYIYAMGWYRQAPGKERELVAAISSAGSTYYADSVKGRFTISRDNAKNTVYLQMNSLKPEDTAVYYCAARAQYPGWRYNYWGQGTQVTVSS | high polyreactivity
QVQLVESGGGLVQAGGSLRLSSAASGFIFKYNAMGWYRKAPGKERELGAAITWSGGSTYYADSVKGRFTISRDNAKNTVYLQMNSLKPEDTAVYYCAARPYRTKLIYGYWGQGTHVTVSS | high polyreactivity
QVQRVESGGGLVQAGGSLRLRCAASGSILYHNTMGWYIQAPGKEREFVASISANGGSTYYADSVKGRFTISRDNAKNTVYLQMNSLKPEDTAVYYCAARVADYPLVGGSSYNRMEYWGQGTQVTVSS | low polyreactivity
QVQLVESGGGLVQAGGSLRLSCAASGRIFFIYAMGWYRQAPGKERELVAAISYDSGSTYYADSVKGRFTISRDNAKNTVSLQMNSLKPEDTAVYYCAAEWGLVIYSTYGYDYWGQGTQVTVSS | low polyreactivity
QVQLVESGGGLVKAGGSLRLSSAASGRILYGNAMGGYRQAPGKERELVAANTRRGGSTYYADSVKGRFTISRDNAKNTVSLQMNSLKPEDTAVYYCAASRYTSYYKDGCYAYYYWGQGTQVTVSS | high polyreactivity
QVQLVESGGGLVQAGGSLRLSCAPSGSIFLHYAMGRYRQAPGKERDLVAAISRSGGRTYYADSVKGRFTISRDNAKNTVYLQMNSLKPEDTAVYYCAARVPRYRKDSVWAYYYWGQGTQVTVSS | high polyreactivity

Sequence | polyreactivity (PSR sort gate)
QVQLVESGGGVVQAGGSLRFSCAASGSIFPGYAMGWYRQAPGKEREMVATITWSGGTTYYADSVKGRFTISRDYAKNTVYFQMNSLKPEDTAVYYCNATFGYPFLDYDDYWGQGTQVNVSS | low polyreactivity
QVQLVESGGGLDQAGGSLRLSCAASASTFRRYAMGWYRQAPGKERELVAAISRSGGNTYYADSVKGRFTISRDNAKNTVYLQMNSLKPEDTAVYYCAASKLYGSPEHGYWGQGTQVTVSS | high polyreactivity
QVQLVESGGGLVQAGGSLRLSCAASGRTFGRYAMVWYRQAPGKEREFVASISRRGGTTYYADSVKGRFTISRDNAKNSVYLQMNSLKPEDTAVYYCNADRTVIYDYEYWGQGTQVTVSS | low polyreactivity
QVQLVESGGGLVQAGVSLRLSCAASGINFTRYAMGWYRQAPGKERELVAAITRNGVSTYYADSVKGRFTISRDIAKNSVYLQMKSLKPEDTAVYYCNTFVLRRYAYCYWGQGTQVTVSS | high polyreactivity
QVQLVESGGGIVQAGGRLRLSCAASGSTFFKYARGWYRQAPGKERELVATMSGTGGRTYYADSVKGRFTISRDNAKNTVYLQMNSLKPEDTAVYYCAAGIYRPFFYTLDYWGQGTQVTVSS | low polyreactivity
QVQLVESGGGLVQAGGSLRLSCAASGGTFDTYDMGWYRQAPGKERELVAAIRFGDGTTYYADSVKGRFTISRDNAKNTVYLQMNSLKPEDTAVYYCAAVFVWQPQYDQFRYDYWGQGTQVTVSS | low polyreactivity
QVQLVESGGGLVQAGGSLRLSCAASGYIFDRYAMGWYRQAPGKERELVAAISSDGSTYYADSVKGRFTISRDNAKNTVYLQMNSLKPEDTAVYYCAADGGESAWGGYDYWGQGTQVTVSS | low polyreactivity
QVQLVESGGGLVQAGGSLRLSCAASGIIFSPYAMGWYRQAPVKERELVAAISYSGGSTYYADSVKGRFTISRDNAKNTVYLQMNSLKPEDTAVYYCAVVYSYYLAVLGYWDYDYWGQGTQVTVSS | low polyreactivity
QVQLVESGGGLVQARGSLRLSCAASGSTFYYYAMALSRQAPVKERELFASISDHGSTNYADSVKGRFTISRDNAKNTVFLQMNSMKPEDTAVYYCGAVWCLQFGSAWYQMGYWGQVTQVTVSS | low polyreactivity
QVQLVESGRGLVQAGGSRRLSCAASGSIITWNAMARYRQAPGKERELFAAIDWDGGSTYYADSVKGRFTISRDNAKNTVYFQMNSLKPEDTAVYYCAATYGWYTGRYPSGHYYYWGQGTQVTVSS | low polyreactivity
QVQLVESGGGLVQAGGSLRLSCAASGRIFYPNAMGWYRQAPGQERELVAAISLSAGSTYYADSVKGRFTISRDNAKNTVSLQMNSLKPEDTAVYYCATQGNSPRGTRRYGYWGQGTQVTVSS | high polyreactivity
QVQLVESGGGLVQAGGSLRLSCAASGLIFYDNAMGWYRQAPGKERELVAAISWGGGTTYYADSVKGRFTISRDNAKNTVYLQMISLKPDDTAVYYCAAEEALFYDFYYVLLDYWGQGTQVTVSS | high polyreactivity
QVQLVESGGGLVQAGGSLRLSCAASGRIFHGYAMGWYRQAPGKERELVATIRSGGGTYYADSVKGRFTISRDNAKNSVYLQINSLKPDDTAVYYCNAQSSYSYFSGYDYWGQGSQVTVSS | low polyreactivity
QVQLVESGGGLVQAGGSLRLSCAASGSILADYAMGWYRQAPGKERELVAGISSGGSTNYADSVKGRFTISRDNAKNTVYLQMNSLKPEDTAVYYCNADQDFLFIGYLFDYWGQGTQVTVSS | low polyreactivity
QVQLVESGGGLVQAGGSLRLSCAASGFTFYDNAMGWYRQAPGKERELVAAITSNGVNTHYADSVKGRFTISRDNAKNTVYLQMNSLKPEDTAVYYCAADRDPEVTYQKYEYWGQGTQVTVSS | low polyreactivity
QVQLVESGGGLVQAGGSLRLSCAASGYTFKRNDMGWYRQAPGKERELVAAISKSGGSTYYADSVKGRFTISRDNAKNTVYLQMNSLKPEDTAVYYCPGPLPYYGQYDYWGQGTQVTVSS | low polyreactivity
QVQLVESGGGLVQAGGSLRLSCAASGRTFSVYVMGWYRQAPGKERELVAAISSSGGRTYYADSVKGRFTISRDNAKNTVYLQMNSLKPEDTAVYYCAAETIVFYVEYNYWGQGTQVTVSS | low polyreactivity
QVQLVESGGGLVQAGGSLRLSCAASGYTFSDNAIGWYRQAPGKERELVAAITSGVSTYYADSVKGRFTISRDNAKNTVYLQMNSLKPEDTAVYYCAKDVAVYADLYQGAPYGYWGQGTQVTVSS | low polyreactivity
QVQLVESGGGLVQAGGSLRLSCAASGRTFDYNAMGWYRQAPGKERELVAAISYSTGTTYYADSVKGRFTISRDNAKNTVYLQMNSLKPEDTAVYYCAAEIFYSEYGYWGQGTQVTVSS | low polyreactivity
QVQLVESGGGLVQAGRSLRLSCAASGSTFPVNTMGWYRQAPGKDRELVAAITKNGANTYYADSVKGRFTISRDNAKNTVYLQMNSLKPEDTAVYYCAARYVYGKSYSRWLVELDYWGQGTQVTVSS | low polyreactivity
QVQLVESGGGLFQAGGSLRLSCAASGRIFAYYTMGWYIQAPGKERELVAAITKRGGSTYYADSVKGRFTISRDNAKNTFYLQMNSLKPEDTAVYYCAADPNRYRYRSPHDYWGQGTQVTVSS | high polyreactivity
